Assay results taken from PMC10713829 (2023).

Molecular target: HLA-A*01:01/hβ2m complex (empty, peptide-free or peptide-receptive) (human)
Assay: FP

IC50: 278 nM
B1: NRAS_(55-64) wild-type (Q61) peptide (peptide)
peptide: ILDTAGQEEY
